# Reference: US10029000B2, “Uses of IL-12 in hematopoiesis” (University of Southern California, priority 2003, dated 2018)
# B1: IL-12: Recombinant murine interleukin 12, heterodimeric cytokine (p35+p40), purchased from R&D Systems or PeproTech (protein, UniProt P43431 23-215; P43432 23-335, looked up)
# Interleukin-12 subunit alpha: RVIPVSGPARCLSQSRNLLKTTDDMVKTAREKLKHYSCTAEDIDHEDITRDQTSTLKTCLPLELHKNESCLATRETSSTTRGSCLPPQKTSLMMTLCLGSIYEDLKMYQTEFQAINAALQNHNHQQIILDKGMLVAIDELMQSLNHNGETLRQKPPVGEADPYRVKMKLCILLHAFSTRVVTINRVMGYLSSA
# Interleukin-12 subunit beta: MWELEKDVYVVEVDWTPDAPGETVNLTCDTPEEDDITWTSDQRHGVIGSGKTLTITVKEFLDAGQYTCHKGGETLSHSHLLLHKKENGIWSTEILKNFKNKTFLKCEAPNYSGRFTCSWLVQRNMDLKFNIKSSSSSPDSRAVTCGMASLSAEKVTLDQRDYEKYSVSCQEDVTCPTAEETLPIELALEARQQNKYENYSTSFFIRDIIKPDPPKNLQMKPLKNSQVEVSWEYPDSWSTPHSYFSLKFFVRIQRKKEKMKETEEGCNQKGAFLVEKTSTEVQCKGGNVCVQAQDRYYNSSCSKWACVPCRVRS
# Legend:
# Assay type in all cases: in vivo, mice
# small intestine = assay: Small intestine histology after lethal dose radiation; conditions: 5 ug/kg, 1000 rad or 1600 rad (10 and 16 Gy), 4 days post radiation
# Description: 4 days post radiation, small intestine were removed, fixed for PAS staining for mice received 10 Gy (Periodic Acid Schiff), H&E staining for mice received 16 Gy. […] There is no obvious histological damage in mice who received 10 Gy radiation. (200× magnification)
# To determine if IL-112 sensitizes intestinal tract to ionizing radiation, two different doses of IL-12 and radiation were used in radioprotection assay, namely 5 ug/kg and 50 ug/kg of IL-12 and two different doses of radiation were also used. Subsequent to the administration of IL-12 and radiation, both bone marrow and the small intestine were removed from mice who received either 5 ug/kg or 50 ug/kg of IL-12 and a lethal dose radiation for histology study. The lethal doses were either 1000 rad or 1600 rad.
# Mice were treated with IL-12 (100 ng/mouse) or PBS 24 hours before receiving lethal irradiation. At different days after lethal irradiation, femurs, spleens and small intestines were removed and fixed in 10% formalin buffer for 24 hours. Subsequently, bone marrow was decalcified in Rapid Decalcifier for about 30 minutes. Samples and tissues then were embedded in TissuePrep 2 paraffin wax for micro-section at 5 μm for routine Hematoxylin and Eosin staining. Some small intestines were treated with PAS (Periodic Acid Schiff) staining.
# bone marrow cells [1] = assay: Cell cycle analysis with propidium iodide staining; conditions: 24 hours post IL-12 administration; control 10%, p<0.05
# Description: (§1) It is believed that cells at S phase are more resistant to radiation. Both Brd-U incoperation and cell cycling analysis were performed to determine if IL-12 can stimulate bone marrow cell proliferation. In IL-12 treated mice, there are more bone marrow cells in S phase compared with control animals (12% vs 10%, p<0.05). Furthermore, there are more BrdU positive cells in IL-12 treated bone marrow compared with control animals (17% vs 8%, p<0.05).
# (§2) 24 hours post IL-12 administration (10 ng/mouse), bone marrow cells were isolated for BrdU incooperation assay (FIG. 7A).
# For the cell cycling assay, IL-12 (100 ng/mouse) or PBS was intravenously injected into mice. 24 hours after injection, whole bone marrow cells were flushed from femurs and treated with lysis buffer to destroy red blood cells. After washing in PBS and fixing in −20° C. pure ethanol for at least 1 hour, about 5×10^5 bone marrow cells were treated with RNase A (20 ng/ul final concentration) at 37° C. for 30 minutes, then stained with propidium iodide (100 ng/ul final concentration) from Sigma (St Louis, Mo.) at room temperature for 15 to 30 minutes and then processed directly for cell cycling analysis using fluorescence activated cell sorting (FACS).
# bone marrow cells [2] = assay: BrdU incorporation assay; conditions: 24 hours post IL-12 administration (10 ng/mouse); control 8%
# Description: as §1, §2
# For the BrdU assay, IL-12 (10 ng/mouse) or PBS was intravenously injected into mice. 21 hours after injection, mice were i.p. injected with 5-Bromo-2′-deoxyuridine (BrdU from Sigma) at 50 mg/kg dosage. 3 hours after BrdU injection, mice were sacrificed and whole bone marrow cells were isolated from femurs and treated with lysis buffer to destroy red blood cells. Bone marrow cells were dispersed on a slide by cytospin for the proliferation assay using BrdU immunohistochemistry system kit purchased from Oncogene Research Products (Boston, Mass.)
molecule,measurement,setting,value
B1,small intestine histology versus control,small intestine,no significant histological difference
same,bone marrow cells in S phase,bone marrow cells [1],12%
same,BrdU positive cells in bone marrow,bone marrow cells [2],17%
